Positions count from the first letter of the chain named.
Assays:
Experiment in all cases: EMSA; Gel-shift buffer not given (as described in ref. 6); TnsD stored in 500 mM KCl, 50 mM Tris-HCl pH 8.0, 1 mM EDTA, 2 mM DTT, 25% glycerol
Details in all cases: protein: recombinant; tags: intein-chitin tag, cleaved with DTT
TnsD H155S = biological target: T1, TnsD H155S (Escherichia coli (transposon Tn7), UniProt P13991 1-508, H155S)
T1 sequence: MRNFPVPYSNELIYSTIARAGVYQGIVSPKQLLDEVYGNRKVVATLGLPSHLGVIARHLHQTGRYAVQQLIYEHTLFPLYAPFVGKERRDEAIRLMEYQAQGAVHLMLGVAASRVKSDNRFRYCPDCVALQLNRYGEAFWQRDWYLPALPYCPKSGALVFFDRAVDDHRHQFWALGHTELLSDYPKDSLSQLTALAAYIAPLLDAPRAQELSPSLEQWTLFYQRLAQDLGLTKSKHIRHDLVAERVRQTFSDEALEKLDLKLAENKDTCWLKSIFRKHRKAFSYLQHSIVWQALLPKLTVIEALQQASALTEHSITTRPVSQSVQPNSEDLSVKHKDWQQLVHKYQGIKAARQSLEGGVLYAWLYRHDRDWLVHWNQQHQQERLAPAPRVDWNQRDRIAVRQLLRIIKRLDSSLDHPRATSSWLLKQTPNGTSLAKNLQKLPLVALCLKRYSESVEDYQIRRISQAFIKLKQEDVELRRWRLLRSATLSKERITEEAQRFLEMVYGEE

TnsD C127S = biological target: T2, TnsD C127S (Escherichia coli (transposon Tn7), UniProt P13991 1-508, C127S)
T2 sequence: T1 sequence with C127S, S155H

TnsD C152S = biological target: T3, TnsD C152S (Escherichia coli (transposon Tn7), UniProt P13991 1-508, C152S)
T3 sequence: T1 sequence with C152S, S155H

TnsD C124S = biological target: T4, TnsD C124S (Escherichia coli (transposon Tn7), UniProt P13991 1-508, C124S)
T4 sequence: T1 sequence with C124S, S155H

Measured: binding signal

B1: attTn7 wt (+23 to +58) (dsDNA)
DNA 1: CCGCGTAACCTGGCAAAATCGGTTACGGTTGAGTAA
DNA 2: TTACTCAACCGTAACCGATTTTGCCAGGTTACGCGG
0.05 relative to wt: all assays above

From publication PMC2918618, “Characterization of the TnsD-attTn7 complex that promotes site-specific insertion of Tn7” (Mobile DNA, 2010)
